Data: publication PMC9436932 (Scientific Reports, 2022)

Molecular target: the molecule itself
Experiment: SEC

B1: TatB^22–171 (soluble membrane-extrinsic cytoplasmic domain of E. coli TatB, transmembrane helix residues 1–21 deleted) (domain or fragment, UniProt P69425 22-171, looked up)
chain: PQRLPVAVKTVAGWIRALRSLATTVQNELTQELKLQEFQDSLKKVEKASLTNLTPELKASMDELRQAAESMKRSYVANDPEKASDEAHTIHNPVVKDNEAAHEGVTPAAAQTQASSPEQKPETTPEPVVKPAADAEPKTAAPSPSSSDKP
notes: also called membrane-extrinsic domain of TatB; soluble TatB
binding result: binds
